The values below come from the supplement of paper PMC12042874.

This data set in a line: amyloid nucleation score (Sup35N fusion, yeast selection) (log enrichment); library NNK3; higher = more nucleation; inactive = no reads after selection. The method, boiled down: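 Nucleation score: DiMSum log enrichment of output over input reads, centred on the mode score of non-aggregating sequences. Only sequences with at least 100 input reads were kept. Reads came from Illumina sequencing of plasmid inserts before and after 7 days of growth at 30°C without adenine and uracil, in psi-negative yeast expressing Sup35N fused to peptides of 20 random codons after 24 hours of induction with 100 μM copper sulfate.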

± gives the uncertainty stated by the source.

Take VFNRSSAT: the amyloid nucleation score result was “inactive”.

For IYGLLVDRRAVIFFEYMHLV, the amyloid nucleation score entry was “inactive”.

Regarding TRKDDFDLSGCSR, the amyloid nucleation score result is “inactive”.

Consider NYFYRPYSEDSVITQMIVVV, for which the amyloid nucleation score result was “inactive”.

Substance AMSTPIGMGEVKFKCFILWL returned an amyloid nucleation score of 0.56 ± 0.18.

For LSIVITRYDMSCSAETMFNL, the amyloid nucleation score result was “inactive”.

In turn, SLLRFSLGSCWTFSPKGNYL gave an amyloid nucleation score of 1.87 ± 0.085.

LREVLCCVSTDSYVFILLRG yielded an amyloid nucleation score of 1.01 ± 0.14.

Substance MVFMADK came in with an amyloid nucleation score of 0.268 ± 0.2.

Consider SVLYRWGYRTGWEL, for which the amyloid nucleation score turned out to be 0.128 ± 0.52.

Regarding WSVITT, the amyloid nucleation score entry was “inactive”.

As for TYQVILSFYDLWFGRSAYCQ, the amyloid nucleation score entry is “inactive”.

With RLRGVGIIVGGASQSSSQLR, the amyloid nucleation score result is “inactive”.

In turn, NSNLDSSVYSVILYGLGVWM had an amyloid nucleation score of 1.18 ± 0.094.

VLRCTSPIES: the amyloid nucleation score result is “inactive”.

As for MYSPVFRI, the amyloid nucleation score result was “inactive”.

On to IVVEQLHDWDIPMKGTTFRS, for which the amyloid nucleation score entry was “inactive”.

For the substance VTVSAQPAIK, the amyloid nucleation score entry is “inactive”.

LSYNRKEYGNRPGFSEYSST: the amyloid nucleation score result was “inactive”.

As to MVCISL, the amyloid nucleation score result is “inactive”.

On to WLWDVDDYGNPLWVRHASVA, for which the amyloid nucleation score result was “inactive”.

With HATGSMNVSVSAGVRQQILR, the amyloid nucleation score entry is “inactive”.

For NKRLAQRQWDTACFQKG, the amyloid nucleation score entry was “inactive”.

Regarding MCDKV, the amyloid nucleation score entry was “inactive”.

As to QKHISY, the amyloid nucleation score entry is “inactive”.

As for ILRCVFRGYMYYVMGSFYLT, the amyloid nucleation score entry was “inactive”.

On to PRLHRECNEGEVGL, for which the amyloid nucleation score was 0.206 ± 0.81.

As for NGRWRRFLWKNGCMELYRTG, the amyloid nucleation score is 1.52 ± 0.085.

Regarding RYYGSFVEPRSFSRN, the amyloid nucleation score entry was “inactive”.

Take RIGQMFLILVFKGLL: the amyloid nucleation score entry was “inactive”.

For the substance LNYDSSTRLNVLW, the amyloid nucleation score entry is “inactive”.

CFLRWNRFL had an amyloid nucleation score of 0.106 ± 1.1.

Consider MLELLTFTDFLGTTDITRNS, for which the amyloid nucleation score is -0.113 ± 0.39.

With IYNTGHSSRYLRTPVFAWSE, the amyloid nucleation score entry is “inactive”.

Consider CRCKC, for which the amyloid nucleation score result was “inactive”.

As for ICTKSALYQTMLS, the amyloid nucleation score result is “inactive”.

IYQWTEFCGRIFQSCRMVLC: the amyloid nucleation score entry is “inactive”.

Take SFPWSCPASYSYQGCWWERD: the amyloid nucleation score entry was “inactive”.

Substance ICVLCSGIMKMCCAMGDLSV had an amyloid nucleation score of 1.36 ± 0.064.

For VWVTFMRAVMTLELCLERMR, the amyloid nucleation score entry was “inactive”.

For CSEVGRS, the amyloid nucleation score result was “inactive”.

As for SYFDIFGTTDQVSVKSRMCT, the amyloid nucleation score entry is “inactive”.

On to NRMQVMLSVVRSSLFVWMQW, for which the amyloid nucleation score result is “inactive”.

As for TILWFSSNETFYAGIHRSCP, the amyloid nucleation score result was “inactive”.

Turning to YMGYWFKFFTFSGDQVTIGR, the amyloid nucleation score amounted to 0.718 ± 0.14.

Consider NSYFGMWVITGFFLASMCIR, for which the amyloid nucleation score result was “inactive”.

In turn, KYLGMMVKNANMLALCYAGW showed an amyloid nucleation score of -0.279 ± 0.68.

NCICLSGHFGHL returned an amyloid nucleation score of 2.24 ± 0.091.

For the substance KIGSLVKECCGLPVYYALLK, the amyloid nucleation score result is “inactive”.

The substance WVCMVNSRRSCIRNS came in with an amyloid nucleation score of 0.381 ± 0.75.

Consider ILMELPRRRMWSLKALSLMY, for which the amyloid nucleation score entry is “inactive”.

For KCDEDCYAFDVYLSMGYDVS, the amyloid nucleation score result is “inactive”.

Consider SNESLWVSLIICFVTHWFQI, for which the amyloid nucleation score result is “inactive”.

As to KVSMYRVVWCPASFGVIIVA, the amyloid nucleation score result was “inactive”.

In the case of LIYRLGNVHVPKYW, the amyloid nucleation score result was “inactive”.

Turning to NPIRGYLMYSPALSPLVG, the amyloid nucleation score result was “inactive”.

Turning to MCSAEA, the amyloid nucleation score result is “inactive”.

On to IDKFVRFCIFSWCLMNGDVG, for which the amyloid nucleation score result is “inactive”.

Regarding YLLMTGVWWYYQMCVVVYM, the amyloid nucleation score result was “inactive”.

On to CRVVDFG, for which the amyloid nucleation score was -0.107 ± 0.49.

On to ISIFWSIEGSNYLHLILHQG, for which the amyloid nucleation score entry is “inactive”.

Take WPANGMSRLVNRL: the amyloid nucleation score result was “inactive”.

The substance IIITVVGSCYSV came in with an amyloid nucleation score of 1.7 ± 0.071.

Turning to SRRVRAYIRVFGLCKGFAEC, the amyloid nucleation score result was “inactive”.

Regarding SAGIIFCMKSLVFSFLFITL, the amyloid nucleation score entry is “inactive”.

For the substance MVFCNGFGYGASNFGNNSAS, the amyloid nucleation score entry was “inactive”.

Consider MLWEVDLNVRTSMADT, for which the amyloid nucleation score entry is “inactive”.

For GSVSYLNMTVFFSTVLFIYT, the amyloid nucleation score entry is “inactive”.

In the case of QLTLACSRLQAGLSSQRHLS, the amyloid nucleation score entry was “inactive”.

On to VNTEG, for which the amyloid nucleation score result was “inactive”.

For the substance LQVHILFMAIKYFSMAVV, the amyloid nucleation score result was “inactive”.

For LSSLVSSSTSCWLWIRTNRL, the amyloid nucleation score result is “inactive”.

RPSCMFCPSHAMARLPPVGS: the amyloid nucleation score entry is “inactive”.

As to FKASSGWLDLWD, the amyloid nucleation score result was “inactive”.

For the substance LSRRNFIRNNVVQ, the amyloid nucleation score result is “inactive”.

CKNQHFLSLIGFLYHIDPKR: the amyloid nucleation score was 0.709 ± 0.17.

On to WREAICLLICTIITVPWVNW, for which the amyloid nucleation score entry was “inactive”.

On to AIELIFVLWAFAHCAPCFEL, for which the amyloid nucleation score result is “inactive”.

The substance TNLVAIKYLFT came in with an amyloid nucleation score of -0.022 ± 0.48.

For WRVHHFGWAGEY, the amyloid nucleation score result was “inactive”.

The substance VVDIKNLYTCLTFCHKYGLN displayed an amyloid nucleation score of 0.988 ± 0.12.

Take NRPTAVSFCK: the amyloid nucleation score result is “inactive”.

On to WFYVDLFCGWTRDVNAASCL, for which the amyloid nucleation score result is “inactive”.

Consider QELLPIRYLVE, for which the amyloid nucleation score result is “inactive”.

In the case of PQLCESLELSEKRRTEDLVG, the amyloid nucleation score entry is “inactive”.

Turning to QSLSVEH, the amyloid nucleation score result is “inactive”.

In turn, YCTFDVCGFSSASSEGFNTA had an amyloid nucleation score of 0.465 ± 0.32.

In the case of IEINCCSNFIGVCVDNLNL, the amyloid nucleation score came to 2.57 ± 0.055.

As for MYFVKMLMGVILLVNFSRW, the amyloid nucleation score result is “inactive”.

Consider AVMNVHFDSSVMEPIDLNRW, for which the amyloid nucleation score entry is “inactive”.

Turning to VSYGPA, the amyloid nucleation score entry is “inactive”.

With PPGLGYSMVFYSSVDMHMLS, the amyloid nucleation score entry is “inactive”.

Regarding ARSDVSCPWSGRMATVCLTV, the amyloid nucleation score result was “inactive”.

ILTKRTAAFDPLGLKNWERC yielded an amyloid nucleation score of -0.398 ± 1.7.

Consider LDRVSTVGSKNLFQRCCKIS, for which the amyloid nucleation score result is “inactive”.

For the substance WSYHATTPHLRRYRLERSSN, the amyloid nucleation score result is “inactive”.

As for KSNSSLTRRARYETSTSSSP, the amyloid nucleation score entry was “inactive”.

Regarding ASQDI, the amyloid nucleation score entry was “inactive”.

On to YSAAYEIIIFICQCCNLKVG, for which the amyloid nucleation score entry was “inactive”.

For YFSQVGRDCMFR, the amyloid nucleation score result is “inactive”.

Turning to CMSPYALGEISKRRVEVDSY, the amyloid nucleation score entry is “inactive”.

Take YRAFTFIGCLNGLTNQHFFY: the amyloid nucleation score turned out to be 2.4 ± 0.059.

Regarding EIVYCPWLQSWRA, the amyloid nucleation score entry is “inactive”.

For YFMCREMALILEHLCEAGWC, the amyloid nucleation score entry was “inactive”.

On to DRLPGANICKRRFDMCERKV, for which the amyloid nucleation score result was “inactive”.

AGSIGPVRSRGIMLTRLEV registered an amyloid nucleation score of -0.42 ± 1.8.

KLSLMAVNLSWIYFCL yielded an amyloid nucleation score of 0.182 ± 0.27.

For the substance NAFDFSL, the amyloid nucleation score entry is “inactive”.

For the substance LSMLI, the amyloid nucleation score result was “inactive”.

As for CQQIWRLGQCVQLLFCTRSK, the amyloid nucleation score is 1.31 ± 0.11.

VRHNLLGCLLGSFLGASSNR registered an amyloid nucleation score of -0.306 ± 0.37.

As for ARPNGTTKCVDNGRKPVRII, the amyloid nucleation score entry was “inactive”.

Turning to LMNKKCNPGDKTLQIYIRRG, the amyloid nucleation score result was “inactive”.

On to RGNKTI, for which the amyloid nucleation score result was “inactive”.

NGSYIFPSNCYSKIAIVMVG registered an amyloid nucleation score of 0.706 ± 0.26.

Consider LWTYIWDRFEDPVECLRWWN, for which the amyloid nucleation score entry was “inactive”.

Take RDRSVKRVVHSGFRFSIGEA: the amyloid nucleation score entry was “inactive”.

YFFCCLR displayed an amyloid nucleation score of 2.44 ± 0.059.

Turning to QHTAFLRKVSPSLRG, the amyloid nucleation score result is “inactive”.

For the substance LINKLENLIYSG, the amyloid nucleation score entry was “inactive”.

Turning to ADVCNAFRVISICLYAIIVL, the amyloid nucleation score entry was “inactive”.

Substance CGFDMY returned an amyloid nucleation score of 1.84 ± 0.094.

With SVSLAHFGSRKLVFSG, the amyloid nucleation score result is “inactive”.

On to CLGFSL, for which the amyloid nucleation score entry was “inactive”.

Turning to VLRVLLGFDKFTATISTPDG, the amyloid nucleation score was 0.323 ± 0.28.

In the case of NLVSQK, the amyloid nucleation score entry is “inactive”.

Regarding CLPWHWMLNYFGYKNVKS, the amyloid nucleation score result is “inactive”.

Turning to VVFENLDRAFVYRRLDPIRC, the amyloid nucleation score entry is “inactive”.

For SYRAARNFHMFLLYWHGTRW, the amyloid nucleation score entry is “inactive”.

Substance ATFRMGRKVPWS gave an amyloid nucleation score of 1.01 ± 0.23.

As for VRDVDKMC, the amyloid nucleation score entry is “inactive”.

For LLSVTCTG, the amyloid nucleation score result was “inactive”.

On to HPVLRIRLLREKMMRFS, for which the amyloid nucleation score result was “inactive”.
